The numbers were not newly measured in PMC1854907, which cites them from elsewhere.

The target in this data set is SCP2 PTS1 peptide (Homo sapiens). Description: ITC. (In general: Isothermal titration calorimetry measures the heat released or taken up as one component is titrated into another.)

As a reminder, the Kd is the free concentration of one partner at which half of the binding sites on the other are occupied at equilibrium, for simple one-to-one binding. “Pex5p(C) C-terminal domain (from UniProt P50542)”: the Kd is 0.664 µM.
